The values below come from publication PMC4238996 (PLoS Neglected Tropical Diseases, 2014).

In this assay the target is T1, M. tuberculosis Rv0020c (M. tuberculosis H37Rv, UniProt P71590 1-527).
T1 sequence: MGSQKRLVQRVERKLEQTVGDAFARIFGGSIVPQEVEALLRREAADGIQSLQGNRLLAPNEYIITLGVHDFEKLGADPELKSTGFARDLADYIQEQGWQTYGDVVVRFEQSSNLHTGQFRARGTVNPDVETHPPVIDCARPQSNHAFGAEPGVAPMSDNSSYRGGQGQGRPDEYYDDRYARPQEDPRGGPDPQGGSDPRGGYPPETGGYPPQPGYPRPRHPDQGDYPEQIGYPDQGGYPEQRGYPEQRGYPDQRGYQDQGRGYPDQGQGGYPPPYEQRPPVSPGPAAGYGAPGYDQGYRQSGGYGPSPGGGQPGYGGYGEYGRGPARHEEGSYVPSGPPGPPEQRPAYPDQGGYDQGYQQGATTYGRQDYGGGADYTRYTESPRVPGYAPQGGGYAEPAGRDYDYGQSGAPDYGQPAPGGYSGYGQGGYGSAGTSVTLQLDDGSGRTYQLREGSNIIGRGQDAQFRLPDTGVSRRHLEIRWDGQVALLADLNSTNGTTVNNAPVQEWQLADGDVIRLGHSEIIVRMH
Description: ELISA. Conditions: both partners purified. (ELISA stands for enzyme-linked immunosorbent assay.)

B1: MBP-tagged MupDivIVA-P (Mup012c residues 1-87, phosphorylated by co-expression with PknQ) (natural protein, M. ulcerans Agy99 (plasmid pMUM001), UniProt Q6MZ92 1-87, looked up)
chain: MSHSELLDPALPKSPFGKQGYRYDDVDVFLRLIADELQGSDLSESDIHSITFRCAAPLTRGYDTESVDRFLDRIAETIARGHGDEGQ
notes: also called phosphorylated MupDivIVA
Take B1: the binding result is on record as “binds”.

B2: MBP-tagged MupDivIVA S43/45/49A triple mutant (natural protein)
chain: MSHSELLDPALPKSPFGKQGYRYDDVDVFLRLIADELQGSDLAEADIHAITFRCAAPLTRGYDTESVDRFLDRIAETIARGHGDEGQ
In the case of B2, the binding result is “binds”.
